Reference: patent US6586252B2, “Nucleic acid molecule encoding the catalytic subunit of a protein phosphatase 2A that regulates flowering time in plants” (Korea Kumho Petrochemical Co., Ltd., priority 2001, dated 2003)

System: phosphorylated oat phytochrome A
Test: Dephosphorylation of autophosphorylated oat phytochrome A by recombinant PP2AC-JD (SDS-PAGE, autoradiography)
Format: biochemical
Procedure: The oat phytochrome A was first autophosphorylated in the presence of γ[32P]ATP under the light conditions indicated. The recombinant PP2AC-JD protein was expressed via the pGEX-4T-1 expression vector in E. coli strain BL21 as a GST fusion, and the GST tag domain was cleaved out by thrombin digestion. (A) Cation requirements for the PP2AC-JD activity. One μg of the phosphorylated phytoclirome A was incubated with 0.2 μg of the recombinant PP2AC-JD for 30 minutes at room temperature, analysed on 12% SDS-PAGE, and subject to autoradiography. (B) Spectral form-dependent dephosphorylation of the phytochrome A. The Pfr form was a better substrate for the PP2AC-JD than the Pr form.
The enzymatic activity of the protein phosphatase encoded by said nucleic acid molecule can be assayed using a phosphorylated protein, preferentially autophosphorylated phytochromes. The reaction mixture is then analyzed on SDS-PAGE and visualized by autoradiography.
The PCR product containing the PP2AC-JD gene was double-digested with EcoRI and XhoI and incorporated into the pGEX-4T-1 E. coli expression vector, resulting in pG-PP2AC-JD. In this expression construct, the PP2AC-JD gene sequence was in frame fused to the glutathione S-transferase (GST) coding sequence at the N-terminus. The vector construct was transformed into E. coli strain BL21, and the transformants were selected with 100 μg/ml ampicillin. RB medium, rather than LB, was used for induction. Two hundred fifty ml of RB (0.5% yeast extract, 1% tryptone, 0.5% NaCl, 0.2% glucose, pH 7.5 with NaOH) supplemented with ampicillin (100 μg/ml) was inoculated with 3 ml of freshly grown cell culture and incubated at 20° C. with shaking at 250 rpm to an OD600 of 0.6. Expression was induced by adding IPTG (1 μM) and by further shaking at 20° C. for 5 hours. After centrifugation at 5000×g for 5 minutes, the cell pellet was washed in ice-cold 1×Phosphate-Buffered Saline (PBS, 140 mM NaCl, 2.7 mM KCI, 10 mM Na2HPO4, 1.8 mM KH2PO4, pH7.3). […]

B1: PP2AC-JD: recombinant catalytic subunit of a pea protein phosphatase 2A (SEQ ID NO: 2), expressed in E. coli BL21 (protein)
chain: MDLDQWISKVKDGQHLLEDELQLLCEYVKEILIEESNVQPVNSPVTVCGDIHGQFHDLMKLFQTGGHVPETNYIFMGDFVDRGYNSLDVFTILLLLKARYPANITLLRGNHESRQLTQVYGFYDECQRKYGNANATRYCTDVFDYLTLSAIIDGTVLCVHGGLSPDIRTIDQIRVIERNCEIPHEGPFCDLMWSDPEDIETWAVSPRGAGWLFGSRVTSEFNHINNLDLVCRAHQLVQEGLKYMFQDKGLVTVWSAPNYCYRCGNVASILSFNENMEREVKFFTETEENNQMRGPRTGVPYFL
- stimulatory effect of other cations on PP2AC-JD activity (cations other than Fe2+ or Zn2+): did not show any significant stimulatory effects
- dephosphorylation of phosphorylated oat phytochrome A (in the presence of Fe2+ or Zn2+, 1 μg phytochrome A, 0.2 μg PP2AC-JD, 30 minutes, room temperature): efficiently dephosphorylated
- dephosphorylation of Pfr phytochrome A compared with the Pr spectral form (phytochrome A autophosphorylated under different light conditions): more efficiently dephosphorylated
